Earlier results, collected in article doi:10.1101/2022.02.18.481064.

Target: Cys106 (UniProt position 106, LIAAICAGPTA)
Conditions: Reduced Cys106 thiol/thiolate is implied. The state is otherwise not stated.

In the case of “DJ-1 (Parkinson disease protein 7, PARK7) (Homo sapiens)”, the pKa is given as 5.4.
